Measurements from article PMC5984536.

Molecular target: actin filaments (F-actin) assembled in vitro from DyLight-labeled actin and biotinylated actin (UniProt P68135)
Assay: TIRF microscopy of cofilin-EGFP on single actin filaments

## cofilin-EGFP (recombinant mouse cofilin tagged on its C terminus) (from UniProt P18760 1-166) (natural protein)
  average density of cofilin on stuck F-actin against that on mDia1(−) F-actin: 35 % lower
